Data: publication PMC10294653
Where two headings read alike, the source gives them in different places.

Tests used:
Assay in all cases: two-hybrid; bacterial two hybrid (BACTH): T18 and T25 adenylate cyclase fusions in E. coli BTH101 (cya mutant); beta-galactosidase assay in Miller units; cultures grown overnight at 26°C, subcultured in LB, 37°C for 30 min
[1] = molecular target: leucine zipper (zip) domain, positive control of the bacterial two-hybrid system
[2] = molecular target: leucine zipper (zip) domain, positive control of the bacterial two-hybrid system; remark: listed apart in the source
[3] = molecular target: T25 fusion to the N terminus of Wzb (K. pneumoniae (strain KPPR1S))
[4] = molecular target: T25 fusion to the N terminus of WcaJ (K. pneumoniae (strain KPPR1S))
[5] = molecular target: T25 fusion to the N terminus of Wzc (K. pneumoniae (strain KPPR1S))

Substance: leucine zipper (zip) domain, positive control of the bacterial two-hybrid system (domain or fragment)
- beta-galactosidase activity [1]: 1530 Miller units
- beta-galactosidase activity [2]: 1740 Miller units

Substance: RmpD-T18 (natural protein)
- beta-galactosidase activity relative to the zip-zip controls (% of the zip-zip controls) [3]: < 10
- beta-galactosidase activity relative to the zip-zip controls (% of the zip-zip controls) [4]: < 10
- beta-galactosidase activity [5]: 2150 Miller units
